Assays:
L-selectin [1] = biological target: T1, L-selectin (Rattus norvegicus, UniProt P30836); assay: Stamper-Woodruff assay, lymphocyte adherence to immunoprecipitated CD44 and PSGL-1; assay type: cell-based; conditions: 80 rpm
T1 construct: L-selectin naturally expressed on leukocytes; endogenous in cells; host or cells: lymphocytes (rat thoracic duct lymphocytes; human PBMC also prepared)
T1 sequence (P30836 39-372): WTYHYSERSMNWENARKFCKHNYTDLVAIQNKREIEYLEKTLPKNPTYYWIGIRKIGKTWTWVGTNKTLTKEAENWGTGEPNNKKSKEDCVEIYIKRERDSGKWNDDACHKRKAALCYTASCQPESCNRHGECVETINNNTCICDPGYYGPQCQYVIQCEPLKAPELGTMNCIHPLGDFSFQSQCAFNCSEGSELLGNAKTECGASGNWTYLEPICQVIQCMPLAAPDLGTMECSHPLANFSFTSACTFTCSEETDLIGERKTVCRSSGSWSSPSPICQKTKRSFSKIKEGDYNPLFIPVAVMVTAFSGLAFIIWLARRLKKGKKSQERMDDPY
Method: (§1) These protein spots were then fixed in 3% glutaraldehyde, unreactive aldehyde groups were blocked in 0.2M lysine and slides were kept in RPMI-1640 without NaBicarbonate/2% FBS until ready for testing. Lymphocytes (10^7/ml RPMI-1640 without NaBicarbonate/5% FBS) were overlayed onto these fixed immunoprecipitates and incubated on an orbital shaker at 80 rpm for 30 min. at 4° C. The number of adherent lymphocytes was quantified by light microscopy using an ocular grid under 100× magnification (a minimum of 5 fields/slide, 2 slides/experiment, and 3 separate experiments). Data were presented as the mean number of bound lymphocytes±standard deviation. KG1a CD34 and L-selectin control immunoprecipitates were also tested in this manner. To verify the dependence for sialic acid, glutaraldehyde-fixed spots were treated with Vibrio cholerae neuraminidase (0.1 U/ml RPMI-1640 without NaBicarbonate/2% FBS for lhr at 37° C.).
(§2) Immunoaffinity purified material (0.75-3 μg/spot) was spotted onto glass slides for analyses in the Stamper-Woodruff assay (See below for assay description). For autoradiographic analysis of immunoprecipitated [^35S]-methionine-radiolabeled CD44 and PSGL-1, immunoprecipitates were spotted onto glass slides, allowed to dry and exposed Kodak BioMax-MR film for 12 h at −80° C. Densitometric analysis (optical density) of the autoradiograms was performed with a Hewlett-Packard Scanj et 5200C scanner and NIH Image processing and analysis program.

L-selectin [2] = assay: as above; assay type: cell-based, rat; conditions: equimolar amounts (0.75 μg CD44, 1 μg PSGL-1); 80 rpm
Method: as §1, §2

E-selectin = biological target: T2, E-selectin (Homo sapiens, UniProt P16581); assay: CHO-E cell rolling on immobilized immunoprecipitates, parallel-plate flow chamber; assay type: cell-based; conditions: immunoprecipitates on plastic; 2.8 dynes/cm^2
T2 construct: stably transfected with full-length cDNA encoding human E-selectin; expressed in transfected cells
T2 sequence (P16581 22-610): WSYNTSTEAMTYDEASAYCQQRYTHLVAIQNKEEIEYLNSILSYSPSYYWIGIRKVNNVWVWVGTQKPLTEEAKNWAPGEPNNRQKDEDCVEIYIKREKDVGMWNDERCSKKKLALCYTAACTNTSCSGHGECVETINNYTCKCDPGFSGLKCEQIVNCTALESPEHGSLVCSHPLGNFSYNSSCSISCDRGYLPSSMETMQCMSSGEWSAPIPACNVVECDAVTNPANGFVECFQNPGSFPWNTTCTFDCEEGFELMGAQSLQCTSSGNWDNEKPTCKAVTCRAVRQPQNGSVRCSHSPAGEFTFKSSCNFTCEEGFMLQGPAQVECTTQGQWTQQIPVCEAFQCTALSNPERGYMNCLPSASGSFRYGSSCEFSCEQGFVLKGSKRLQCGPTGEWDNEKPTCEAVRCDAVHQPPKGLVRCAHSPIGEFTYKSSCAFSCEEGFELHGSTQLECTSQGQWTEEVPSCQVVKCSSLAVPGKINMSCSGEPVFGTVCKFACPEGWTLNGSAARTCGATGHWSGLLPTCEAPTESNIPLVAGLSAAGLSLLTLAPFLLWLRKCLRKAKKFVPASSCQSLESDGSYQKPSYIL
Method: CD44 was immunoprecipitated from untreated cell lysates or from cell lysates treated with N-glycosidase-F (0.8 U/ml) Vibrio cholerae neuraminidase (0.1 U/ml) or a-L-fucosidase (80 mU/ml), and PSGL-1 was immunoprecipitated from untreated cell lysates as previously described (Sackstein and Dimitroff, 2000; Dimitroff et al., 2000).
CD44 or PSGL-1 immunoprecipitates were spotted onto plastic petri dishes, fixed in 3% glutaraldehyde and incubated in 0.2M lysine to block unreactive aldehyde groups, and then non-specific binding was prevented by incubating in 100% FBS for 1 hr at RT. Fixed spots were also treated with Vibrio cholerae neuraminidase (0.1 U/ml assay medium), which was overlaid onto the spots and incubated at 37° C. for 1 hr. […] The flow rate was then increased to achieve a shear stress of 2.8 dynes/cm^2. The frequency of cells rolling per 100× magnification field was determined, and data were expressed as the mean±standard deviation of 8 fields visualized from a minimum of 3 experiments.

L-selectin [3] = assay: Stamper-Woodruff assay, lymphocyte adherence to immunoprecipitated CD44 and PSGL-1; assay type: cell-based, rat; conditions: equimolar amounts; from 40 to 100 rpm

## KG1a CD44: glycoform of CD44 with HECA-452 reactive sialylated, fucosylated N-glycans, immunoprecipitated from KG1a cells with Hermes-1
L-selectin [1]; 0.75 μg/spot (PSGL-1 1 μg/spot), 4° C., 100× mag.
  Mean Number of Bound Lymphocytes: 357.8
L-selectin [1]; p<0.001
  fold higher mean number of lymphocytes bound to CD44 than to PSGL-1: 3 fold
L-selectin [2]
  fold greater lymphocyte binding compared with PSGL-1: up to 10 fold
E-selectin
  E-selectin ligand activity (CHO-E cell rolling): exhibited E-selectin ligand activity over a range of shear stress
L-selectin [3]
  fold higher lymphocyte adherence compared with PSGL-1: 5- to 10 fold
